Holding throughout (details): both partners purified
The target in experiment [1] is T1, Human carboxypeptidase A1 (hCPA1) (human, UniProt P15085 111-419).
T1 construct: also called human CPA1
T1 sequence (looked up): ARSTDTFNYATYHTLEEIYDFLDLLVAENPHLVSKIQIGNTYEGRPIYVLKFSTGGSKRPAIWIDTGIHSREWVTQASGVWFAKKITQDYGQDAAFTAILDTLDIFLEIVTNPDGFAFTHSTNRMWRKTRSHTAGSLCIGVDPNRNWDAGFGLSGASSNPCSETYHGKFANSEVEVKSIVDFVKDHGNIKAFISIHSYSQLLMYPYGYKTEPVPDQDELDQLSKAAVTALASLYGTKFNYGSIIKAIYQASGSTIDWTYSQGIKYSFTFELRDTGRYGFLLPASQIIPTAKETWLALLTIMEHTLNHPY
Nature of the experiment: enzyme inhibition kinetics (tight-binding inhibitor, Morrison equation); CPAs: inhibition of hydrolysis of N-(4-methoxyphenylazoformyl)-Phe-OH (0.1 mM) at 355 nm; 20 mM Tris-HCl pH 7.5, 1% v/v DMSO, 0.05% w/v Brij-35, 0.5 M NaCl; 37 °C; enzyme constant (7.5 nM hCPA1, 6.0 nM bCPA1), increasing amounts of inhibitor.

The target of experiment [2] is T2, Bovine carboxypeptidase A (bCPA1) (bovine, UniProt P00730 111-419).
T2 construct: Bovine carboxypeptidase A (CPA1), purchased active enzyme; also called bovine CPA1; source: bought: Sigma
T2 sequence (looked up): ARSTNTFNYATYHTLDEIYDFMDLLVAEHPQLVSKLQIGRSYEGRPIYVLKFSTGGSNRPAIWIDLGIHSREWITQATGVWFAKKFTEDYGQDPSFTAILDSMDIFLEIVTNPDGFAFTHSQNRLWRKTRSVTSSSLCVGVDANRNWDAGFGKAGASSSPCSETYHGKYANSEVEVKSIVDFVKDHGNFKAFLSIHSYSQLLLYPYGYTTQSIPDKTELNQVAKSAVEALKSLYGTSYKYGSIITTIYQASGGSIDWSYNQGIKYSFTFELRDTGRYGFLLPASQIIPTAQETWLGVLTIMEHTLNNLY
The description is as above.

For experiment [3], the target named is T3, Porcine carboxypeptidase B (pCPB1) (porcine, UniProt P09955 111-416).
T3 construct: Porcine carboxypeptidase B (CPB1), purchased active enzyme; also called porcine CPB1; source: bought: Sigma
T3 sequence (looked up): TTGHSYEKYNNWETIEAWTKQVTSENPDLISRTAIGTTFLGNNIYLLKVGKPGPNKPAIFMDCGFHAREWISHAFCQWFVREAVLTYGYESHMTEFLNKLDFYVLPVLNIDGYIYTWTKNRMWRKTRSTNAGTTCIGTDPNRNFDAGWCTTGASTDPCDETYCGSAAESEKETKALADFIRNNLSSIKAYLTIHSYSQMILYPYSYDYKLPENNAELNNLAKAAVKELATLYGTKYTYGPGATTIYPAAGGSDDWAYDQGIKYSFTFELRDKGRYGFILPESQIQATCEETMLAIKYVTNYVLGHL
Briefly: enzyme inhibition kinetics (tight-binding inhibitor, Morrison equation); CPBs: inhibition of hydrolysis of N-(4-methoxyphenylazoformyl)-Arg-OH (0.1 mM) at 355 nm; 20 mM Tris-HCl pH 7.5, 1% v/v DMSO, 0.05% w/v Brij-35, 0.1 M NaCl; 37 °C; enzyme constant (6.0 nM hCPB1 and pCPB1), increasing amounts of inhibitor.

Experiment [4] deals with T4, Human carboxypeptidase B1 (hCPB1) (human, UniProt P15086 111-417).
T4 construct: also called human CPB1
T4 sequence (looked up): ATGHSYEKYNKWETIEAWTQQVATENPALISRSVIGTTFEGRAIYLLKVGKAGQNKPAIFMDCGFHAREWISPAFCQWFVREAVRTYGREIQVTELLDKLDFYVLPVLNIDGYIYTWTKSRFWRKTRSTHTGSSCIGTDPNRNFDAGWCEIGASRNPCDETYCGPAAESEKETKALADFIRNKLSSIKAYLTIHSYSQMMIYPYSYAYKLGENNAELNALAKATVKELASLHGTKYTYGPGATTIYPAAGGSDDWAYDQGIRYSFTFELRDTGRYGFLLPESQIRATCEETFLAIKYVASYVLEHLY
The description is as above.

Bridges are numbered along the chain shown (N, C = ends). Where no end group is shown, it is not given here.

B1: Nerita versicolor carboxypeptidase inhibitor (NvCI), native (natural protein, UniProt P86912 1-53, looked up)
chain: FHVPDDRPCINPGRCPLVPDATCTFVCKAADNDFGYECQHVWTFEGQRVGCYA
modifications: disulfide 15-51, 9-23, 27-38
notes: comprises 53 residues, C-terminal tail Cys51-Tyr52-Ala53; also called native NvCI; 3S-S native form; source: Pichia pastoris, secreted into the extracellular medium, purified (ion exchange, size exclusion); repurified by RP-HPLC
In general, Ki refers to the dissociation constant of the complex between target and ligand, obtained from inhibition or displacement. A lower Ki goes with higher affinity. As for B1, the Ki in experiment [1] was found to be 0.00118 nM; in experiment [2], 0.00491 nM; in experiment [3] it was 0.53 nM; in experiment [4], 0.62 nM.

B2: des(15–51) NvCI folding/unfolding intermediate (natural protein, Nerita versicolor, UniProt P86912 1-53, looked up)
chain: FHVPDDRPCINPGRCPLVPDATCTFVCKAADNDFGYECQHVWTFEGQRVGCYA
modifications: disulfide 9-23, 27-38; cysteine pairing not given here
notes: differs only in the missing Cys15-Cys51 disulfide; also called intermediate IIb; fraction IIb
In the case of B2, the inhibitory constant (Ki) in experiment [1] turned out to be 1 nM; in experiment [2] it was 2.01 nM; in experiment [3], 4.9 nM; in experiment [4] it was 7.85 nM.

The values are drawn from article PMC5511257, “Plasticity in the Oxidative Folding Pathway of the High Affinity Nerita Versicolor Carboxypeptidase Inhibitor (NvCI)” (Scientific Reports, 2017).
